The record followed here is the supplement of paper PMC12764529.

± gives the half width of the 95% confidence interval.

The nature of data set [1]: folding stability dG unfold from chymotrypsin proteolysis; higher = more stable. Put shortly: (§1)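 Digests were run with trypsin and chymotrypsin at 11 concentrations in threefold dilutions, plus a no-protease condition, on designed mini-proteins in a PA-tagged cDNA display construct. The mini-proteins were under 80 residues, had no cysteine, and were kept only when AlphaFold2 dimer inter-PAE was above 15. After sequencing, Bayesian fitting of the counts gave K50, from which unfolding free energy was derived against a sequence-predicted unfolded-state K50 and a shared folded-state K50, per protease or combined.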

The nature of data set [2]: folding stability dG unfold from trypsin proteolysis; higher = more stable. Put shortly: as §1
Data set [3] is described as follows: folding stability dG unfold (combined trypsin and chymotrypsin); higher = more stable. Put shortly:
as §1

In the case of “SAGGSAGGSAGGSPKRVTMYFIIPFYILIPKEDADGNNEWVIIPITIIIKIEIELPPGDSAGGSAGGSAGGS [r4_326_TrROS]”, the results for the “folding stability dG unfold” value in data set [1], in data set [2] and in data set [3] were 5.49 ± 0.14 kcal/mol, 4.5 ± 0.15 kcal/mol and 5.48 ± 0.19 kcal/mol, respectively.
On the same counts, the results for “SAGGSAGGSAGGSPKTILLEVNGRLVLVTVKDGKVEIRDLENPNKTYTFPPGAKILIVDSAGGSAGGSAGGS [r4_321_TrROS_Hall]” are 1.91 ± 0.035 kcal/mol, 1.61 ± 0.021 kcal/mol and 1.84 ± 0.06 kcal/mol.
As for “SAGGSAGGSAGGSPLLDFPEPVTTLEETTVTVYFDTNDFTVTLNVTTEVTGDVKRPTVVGSAGGSAGGSAGG [r7_735_JUSTAS]”, the “folding stability dG unfold” value was found to be 0.464 ± 0.051 kcal/mol in data set [1], 1.1 ± 0.044 kcal/mol in data set [2] and 0.788 ± 0.11 kcal/mol in data set [3].
Consider “SAGGSAGGSAGGSPNWKWVEMEITFNVPPGAKITIPNGIKLTVPPGDPVTIKIYIAVPPSAGGSAGGSAGGS [r4_232_TrROS]”, for which the figures for the “folding stability dG unfold” value in data set [1], in data set [2] and in data set [3] were 2.96 ± 0.048 kcal/mol, 1.94 ± 0.12 kcal/mol and 2.47 ± 0.31 kcal/mol, respectively.
On to “SAGGSAGGSAGGSPNYRLEIRVDIKVSYRYDLFTGEPIEPEVEIEVEIRLIPEGAIVDESAGGSAGGSAGGS [r4_175_TrMRF]”, for which the “folding stability dG unfold” value stood at 4.54 ± 0.28 kcal/mol in data set [1], 3.87 ± 0.14 kcal/mol in data set [2] and 4.57 ± 0.28 kcal/mol in data set [3].
Take “SAGGSAGGSAGGSPPGQEILIQIKIEFTFPIKKQTDGKPQWHPITISFTAAIPIKVDPNSAGGSAGGSAGGS [r4_271_TrROS]”: the entries for the “folding stability dG unfold” value in data set [1], in data set [2] and in data set [3] were 3.59 ± 0.092 kcal/mol, 3.22 ± 0.13 kcal/mol and 3.52 ± 0.14 kcal/mol, respectively.
In the case of “SAGGSAGGSAGGSPVIIPDKGYLVVELEEEGLLVVYPLYPDGEIGPAFVRPVHPDVPVLSAGGSAGGSAGGS [r4_409_TrMRF]”, the “folding stability dG unfold” value in data set [1] amounted to 0.982 ± 0.039 kcal/mol; in data set [2] it was 2.61 ± 0.062 kcal/mol; in data set [3], 1.92 ± 0.072 kcal/mol.
On the same counts, the results for “SAGGSAGGSAGGSPVRVKLKFKKKFTVLLPLTDEDDEILDVEKEYTVEITLEVTLPPDLSAGGSAGGSAGGS [r4_326_TrMRF]” are 4.34 ± 0.2 kcal/mol, 3.26 ± 0.15 kcal/mol and 4.01 ± 0.48 kcal/mol.
As to “SAGGSAGGSAGGSRMRLEITVRDENGLLVRLEVEFEEKDGELEMKVRAEVFPLPEEEEESAGGSAGGSAGGS [r4_168_TrROS_Hall]”, the “folding stability dG unfold” value came to 2.71 ± 0.059 kcal/mol in data set [1], 0.939 ± 0.04 kcal/mol in data set [2] and 2.44 ± 0.1 kcal/mol in data set [3].
“SAGGSAGGSAGGSSFTIKVELKDENGNKYTITVTGTGSAETVKKELEKKYPNKIVKITGSAGGSAGGSAGGS [r4_412_TrMRF]”: the “folding stability dG unfold” value in data set [1] is 2.897 ± 0.025 kcal/mol; in data set [2], 1.93 ± 0.089 kcal/mol; in data set [3], 2.69 ± 0.046 kcal/mol.
Consider “SAGGSAGGSAGGSSKVIEVNGYKITVTDNSVEIYNKKTGKKITVNADNPEVQELLKKLLSAGGSAGGSAGGS [r4_353_TrROS_Hall]”, for which the “folding stability dG unfold” value was found to be 4.254 ± 0.037 kcal/mol in data set [1], 3.6 ± 0.089 kcal/mol in data set [2] and 4.07 ± 0.094 kcal/mol in data set [3].
“SAGGSAGGSAGGSSSSLTPIGSSEKLEKLPDSSLRLVTTTTYRDPVTGETSTTTTVTLTDSAGGSAGGSAGG [r7_546_JUSTAS]”: the “folding stability dG unfold” value was 0.861 ± 0.045 kcal/mol in data set [1], -0.46 ± 0.091 kcal/mol in data set [2] and 0.487 ± 0.052 kcal/mol in data set [3].
As for “SAGGSAGGSAGGSSSSSITTEERPVDEDSVEKTFKFPDYYVVETLDPRTGRTSVSFIPVSAGGSAGGSAGGS [r4_99_JUSTAS]”, the “folding stability dG unfold” value in data set [1] turned out to be 0.249 ± 0.041 kcal/mol; in data set [2], 0.756 ± 0.021 kcal/mol; in data set [3], 0.533 ± 0.072 kcal/mol.
On the same counts, the results for “SAGGSAGGSAGGSSSVSVDTDPETGLITVTTYSSSGGVTVTLYEKPPDGSLTPVSTTAVSAGGSAGGSAGGS [r4_106_JUSTAS]” are 0.844 ± 0.07 kcal/mol, 1.08 ± 0.045 kcal/mol and 1.01 ± 0.046 kcal/mol.
The like results for “SAGGSAGGSAGGSTKTYNAEIDNPNGPKITIPIEYRNEDGESDFEEKAKKFAEEYAKKYSAGGSAGGSAGGS [r4_168_TrMRF]” were, in that order, 0.906 ± 0.16 kcal/mol, -0.886 ± 0.46 kcal/mol and 0.547 ± 0.14 kcal/mol.
Consider “SAGGSAGGSAGGSVTISYNPETGTVVISSPKNKKIITINAENYTPEEILEKAKEAGIDLSAGGSAGGSAGGS [r4_49_TrMRF]”, for which the “folding stability dG unfold” value in data set [1] is 2.02 ± 0.056 kcal/mol; in data set [2] it was 0.613 ± 0.035 kcal/mol; in data set [3], 1.64 ± 0.045 kcal/mol.
With “SAGGSAGGSAGGSVTYEADEVEIKEFTDPSTGKKYVTVTFPGPGGPVTTTLPADLIEELSAGGSAGGSAGGS [r10_447_JUSTAS]”, the “folding stability dG unfold” value in data set [1] was found to be 1.48 ± 0.03 kcal/mol; in data set [2], 0.96 ± 0.043 kcal/mol; in data set [3] it was 1.33 ± 0.093 kcal/mol.
In the case of “SAGGSAGGSAGGSVWIRMPPSKIKDLLDKFGIEPIEIEKMPPGWVYIRITPDALKEAGVFSAGGSAGGSAGG [r7_587_TrROS]”, the “folding stability dG unfold” value in data set [1] is 0.887 ± 0.3 kcal/mol; in data set [2], 0.839 ± 0.14 kcal/mol; in data set [3] it was 0.946 ± 0.16 kcal/mol.
On the same counts, the results for “SAGGSAGGSAGGSWITFRIPEGNPEFIEELARGFGIKPKRINPNRGTITIKLPPGAKIVSAGGSAGGSAGGS [r4_3_TrROS]” are 0.645 ± 0.096 kcal/mol, 0.474 ± 0.12 kcal/mol and 0.641 ± 0.11 kcal/mol.
On the same counts, the results for “SAGGSAGGSAGGSWKIDKFTSIERTDGGYVIRIRMENPDGPPMKQTFYFPPGDDELANISAGGSAGGSAGGS [r4_253_TrROS]” are 0.242 ± 0.3 kcal/mol, 0.285 ± 0.21 kcal/mol and 0.344 ± 0.27 kcal/mol.
As to “SAGGSAGGSAGGSWLEFTFIDPGYGWIISTMKIEINPNGNLNMDMEMVPLKPADDPEDASAGGSAGGSAGGS [r4_178_TrROS]”, the “folding stability dG unfold” value amounted to 3.32 ± 0.099 kcal/mol in data set [1], 2.38 ± 0.13 kcal/mol in data set [2] and 2.9 ± 0.16 kcal/mol in data set [3].
On the same counts, the results for “SAGGSAGGSAGGTGPDTPVTIETTVESVVYEGPEVKVVETFEKKITVTIPPTANPEKVSLSAGGSAGGSAGG [r7_591_JUSTAS]” are -1.06 ± 0.31 kcal/mol, -0.81 ± 0.43 kcal/mol and less than -1 kcal/mol.
The like results for “SAGGSAGGSAGGTGPPPVKTLVIVANWTEEQAEALKKAFPDQEVTVYEIPGLPKTVAVVSSAGGSAGGSAGG [r17_254_TrMRF]” were, in that order, 1.42 ± 0.086 kcal/mol, 0.833 ± 0.03 kcal/mol and 1.16 ± 0.17 kcal/mol.
As for “SAGGSAGGSAGGTIEELVKAGKTVKVRVRLKNGETLEVEIRPDEVVEFPNIEEIEVEEVSAGGSAGGSAGGS [r10_700_TrROS_Hall]”, the results for the “folding stability dG unfold” value in data set [1], in data set [2] and in data set [3] were 1.86 ± 0.026 kcal/mol, 0.784 ± 0.016 kcal/mol and 1.51 ± 0.05 kcal/mol, respectively.
The like results for “SAGGSAGGSAGGTPITDEEFRDLPDDVKLVFENGEVAYVPRDPLKVPIGADKTVTAEPVPSAGGSAGGSAGG [r7_643_TrMRF]” were, in that order, 0.388 ± 0.035 kcal/mol, 1.2 ± 0.059 kcal/mol and 0.801 ± 0.056 kcal/mol.
As to “SAGGSAGGSAGGTVTFFEENEFVIDVPDPLTGRPIRIEVPGDPNKPEEIEARAEELRLSSAGGSAGGSAGGS [r10_379_JUSTAS]”, the “folding stability dG unfold” value is -0.157 ± 0.096 kcal/mol in data set [1], 0.187 ± 0.066 kcal/mol in data set [2] and 0.0609 ± 0.072 kcal/mol in data set [3].
Consider “SAGGSAGGSAGGWAFMWVIEIEMPPEQMPPEDMKKFPNMRIEIEPYWVPIKIDPENGELRSAGGSAGGSAGG [r17_310_TrROS]”, for which the figures for the “folding stability dG unfold” value in data set [1], in data set [2] and in data set [3] were 2.68 ± 0.04 kcal/mol, 1.71 ± 0.075 kcal/mol and 2.5 ± 0.19 kcal/mol, respectively.
On to “SAGGSAGGSAGGWDEIKDILREAGWPVKNVEVQWIPNPENGKPMNSITVSYPDGKKWTIMSAGGSAGGSAGG [r7_337_TrROS]”, for which the figures for the “folding stability dG unfold” value in data set [1], in data set [2] and in data set [3] were 0.0542 ± 0.19 kcal/mol, -0.195 ± 0.13 kcal/mol and 0.0642 ± 0.098 kcal/mol, respectively.
“SAGGSAGGSAGGWFYKRDPDGKPLEPRPVVVIKISYEISYDADGGWKLKLNISIYPVYWISAGGSAGGSAGG [r7_572_TrROS]”: the “folding stability dG unfold” value in data set [1] was determined as 5.01 ± 0.15 kcal/mol; in data set [2], 3.58 ± 0.15 kcal/mol; in data set [3], 4.77 ± 0.31 kcal/mol.
On to “SAGGSAGGSAGGWIMVPIEIKVDLKWGPNGQHEIETVPILIIIRIPPPPVPEEQAEKNNGSAGGSAGGSAGG [r11_318_TrROS]”, for which the “folding stability dG unfold” value in data set [1] came out at 2.68 ± 0.07 kcal/mol; in data set [2], 2.89 ± 0.15 kcal/mol; in data set [3] it was 2.81 ± 0.19 kcal/mol.
On to “SAGGSAGGSAGGWNIQVNPDNLKPGKEYRISITHPNGPPIPFEVRLKADGDGDWEFKIESAGGSAGGSAGGS [r10_390_TrROS]”, for which the “folding stability dG unfold” value in data set [1] was 0.183 ± 0.12 kcal/mol; in data set [2], -0.0699 ± 0.059 kcal/mol; in data set [3] it was 0.134 ± 0.091 kcal/mol.
For “SAGGSAGGSAGGWNYIIFTIRYEFEYKDPNGKTMKHEVEITIIIPIPPIKRDEDGKYKLSAGGSAGGSAGGS [r10_168_TrROS]”, the “folding stability dG unfold” value in data set [1] turned out to be 3.35 ± 0.17 kcal/mol; in data set [2] it was 2.31 ± 0.17 kcal/mol; in data set [3] it was 2.79 ± 0.28 kcal/mol.
On the same counts, the results for “SAGGSAGGSAGGWYRIEIEFGNKPREYVVPGAPPDEAADMLQDPGIKNVKVEPLPPEQLKSAGGSAGGSAGG [r7_502_TrROS]” are 0.537 ± 0.16 kcal/mol, -0.817 ± 0.65 kcal/mol and 0.174 ± 0.25 kcal/mol.
On the same counts, the results for “SAGGSAGGSAGHIPIIFQFEFEHYDPDDGKPKEHRWVIVIEFDGNGIKNIRIIPKEDAKKLLSAGGSAGGSA [r18_406_TrROS]” are 2.28 ± 0.047 kcal/mol, 2.31 ± 0.085 kcal/mol and 2.25 ± 0.14 kcal/mol.
The like results for “SAGGSAGGSAGIITIWFPPDEEFRDFIENLPGPIEDVNIEPRNPGWIKVTLTMRMPPDQVSAGGSAGGSAGG [r11_143_TrROS]” were, in that order, 0.864 ± 0.17 kcal/mol, 0.703 ± 0.07 kcal/mol and 0.871 ± 0.17 kcal/mol.
Turning to “SAGGSAGGSAGIKIEWEPNPNGSWRMKIEIPNPNGNPKKIEVWANPNGKIREDEAKEILNSAGGSAGGSAGG [r11_759_TrROS]”, the “folding stability dG unfold” value in data set [1] was found to be 1.18 ± 0.24 kcal/mol; in data set [2] it was 0.707 ± 0.12 kcal/mol; in data set [3], 1.02 ± 0.39 kcal/mol.
